Positions count from the first letter of the chain named. Several values for one entry are separate records, joined by “and”; a condition that tells them apart may be missing. Equal entries are not always repeated. Blank lines part the entries; values can stand above or below the binder they belong to.
Assays:
[1] = target: T1, human CD47, cell-surface (on Jurkat cells, human red blood cells) (human, UniProt Q08722 19-323); assay: flow cytometry, FITC-conjugated scFv on Jurkat cells, FITC MFI against log µg/ml
T1 construct: also called Integrin Associated protein (IAP); MER6
Method: FIG. 5: Binding of huCO-scFv to Jurkat cells. Jurkat cells incubated with increasing concentrations of FITC-conjugated huCO-scFv. FITC-intensity was analyzed by flow cytometry.
DPBS-washed cancer cell lines or RBCs were pelleted and washed with washing buffer (3% (w/v) BSA, 1% (w/v) sodium azide in DPBS) and incubated with Human BD Fc Block for 10 minutes before being plated into a round-bottom 96 well plate (2.5×10⁵ cells per well). The cells were then incubated with various concentrations of FITC-conjugated huCO-scFv, or human IgG4 isotype control as indicated for 1h on ice with slight agitation. All samples were prepared in duplicates. The cells were analyzed by flow cytometry after three washes in washing buffer. Excitation wavelength FITC: 488 nm, detection: 530/30 nm.

[2] = target: T1, human CD47, cell-surface (on Jurkat …); assay: cell-based or functional assay
[3] = target: T2, recombinant biotinylated CD47 (recCD47, SinoBiological 12283-H27H-B) (UniProt Q08722 19-139, biotinylated (AVI-tag)); assay: SPR Biacore S200, biotinylated recCD47 on SA chip, scFv as analyte, single-cycle, 1:1 model, 25 C
T2 construct: Bought protein; also called recombinant CD47
Method: The binding affinity of the huCO-mAbs to CD47 was determined via surface plasmon resonance (SPR) on a Biacore S200 system. Recombinant biotinylated CD47 was immobilized on an SA streptavidin chip to a level of 100 RU (in 10 mM NaAc pH5.0). […]
A 1:1 binding model was used to fit the data. All curves are well fitted to the 1:1 model. […] The affinity constant KD is calculated as kd/kₐ.

[4] = target: T1, human CD47, cell-surface (on Jurkat …); assay: flow cytometry on stimulated normal human B cells, FITC MFI against log µg/ml
Method: FIG. 6: Hemagglutination and binding of red blood cells (RBCs) by huCO-scFv. (A) 2% RBCs (v/v in PBS) were incubated with increasing concentrations of the indicated antibodies or fragments for 30 minutes. A small punctate circle indicates no hemagglutination, while a diffuse hazy pattern indicates hemagglutination. (B) 2% RBCs (v/v in PBS) were incubated with increasing concentrations of FITC-conjugated CO201-scFv and analyzed by flow cytometry. (C and D) B cells were isolated from buffycoats of healthy human donors using CD19 Dynabeads and stimulated with 1 μg/ml CpG and RP105 for 24 hours. (C) B cells were incubated with the indicated antibodies or fragments at increasing concentrations and analyzed for binding by flow cytometry. (D) B cells were incubated with the indicated antibodies or fragments at concentrations in μg/ml for 3 hours, followed by staining with Annexin V and 7-AAD. % PCD=Annexin V-positive cells.

[5] = target: T2, recombinant biotinylated CD47 (recCD47, …); assay: SPR Biacore S200, biotinylated recCD47 on SA chip, scFv as analyte, single-cycle, 1:1 model, 25 C; remark: listed apart in the source
Method: (§1) The affinity of CO-1 scFv to CD47 was determined via surface plasmon resonance (SPR) on a Biacore S200 system. Recombinant biotinylated CD47 was immobilized on an SA streptavidin chip to a level of 100 RU (in 10 mM NaAc pH 5.0). CO-1 scFv reacted with recombinant CD47 at gradient concentrations
(§2) A 1:1 binding model was used to fit the data. All curves are well fitted to the 1:1 model.

[6] = target: T1, human CD47, cell-surface (on Jurkat …); assay: flow cytometry on Jurkat cells, detection with anti-His6-FITC, four parameter curve fit
Method: PBS-washed cancer cell lines or RBCs were pelleted and washed with washing buffer (3% (w/v) BSA, 1% (w/v) sodium azide in PBS) and incubated with Human BD Fc Block for 10 minutes before being plated into a round-bottom 96 well plate (2.5×10⁵ cells per well). The cells were then incubated with various concentrations of CO-1 scFv, or appropriate isotype controls as indicated for 1 h on ice with slight agitation. All samples were prepared in duplicates. Cells were washed twice, resuspended in cold His staining solution (1 μg/ml His₆-FITC in washing buffer), and incubated for 30 minutes on ice with slight agitation. Cells were analyzed by flow cytometry after two washes. Excitation wavelength FITC: 488 nm, detection: 530/30 nm.
The cells were incubated with increasing concentrations of CO-1 scFv, or isotype control, followed by incubation with an anti-His, FITC secondary antibody. […] The EC₅₀ for CO-1 scFv was analyzed by four parameter […] curve fitting in GraphPad and determined to be 0.05 ng/ml.

[7] = target: T1, human CD47, cell-surface (on Jurkat …); assay: flow cytometry on Jurkat cells, FITC MFI against log µg/ml
[8] = target: T2, recombinant biotinylated CD47 (recCD47, …); assay: SPR Biacore S200, biotinylated recCD47 on SA chip, fusion protein as analyte, single-cycle, 1:1 model, 25 C
Method: as §1, with “The binding” for “The”, “of CO201-scFv-Fc-mono as described in Example 4” for “of CO-1 scFv”, “5.0). CO201-scFv-Fc-mono” for “5.0). CO-1 scFv”
as §2

T1 sequence (Q08722 19-323 limits assumed): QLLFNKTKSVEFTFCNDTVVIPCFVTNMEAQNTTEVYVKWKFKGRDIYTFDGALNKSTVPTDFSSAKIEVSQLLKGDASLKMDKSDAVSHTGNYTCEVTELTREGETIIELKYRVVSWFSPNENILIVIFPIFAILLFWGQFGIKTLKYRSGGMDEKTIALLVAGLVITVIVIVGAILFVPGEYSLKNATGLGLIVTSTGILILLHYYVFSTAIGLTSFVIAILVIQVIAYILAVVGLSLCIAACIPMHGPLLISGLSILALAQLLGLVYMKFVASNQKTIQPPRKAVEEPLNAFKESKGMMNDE
T2 sequence (Q08722 19-139 limits assumed): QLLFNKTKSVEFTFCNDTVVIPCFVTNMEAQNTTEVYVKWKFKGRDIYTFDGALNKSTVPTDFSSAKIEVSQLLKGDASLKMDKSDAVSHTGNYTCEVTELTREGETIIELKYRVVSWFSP

EC50 (read off the curve) [1]: ~2 µg/mL
Kd [3]: 0.061 nM
koff [3]: 0.00026 s⁻¹
kon [3]: 4.3e+06 M⁻¹ s⁻¹
B1: CO201-scFv (scFv)
scFv: QVQLVQSGSELKKPGASVKVSCKASGYTFTNFGMHWVRQAPGQGLEWMGWINTYTGEPTYTDDFKGRFVFSLDTSVSTAYLQISSLKAEDTAVYYCARGDYRYGDSWGQGTTVTVSSGGGGSGGGGSGGGGSDIVMTQTPLSLSVTPGQPASISCRSSQSLVHSNGKTYLHWYLQKPGQPPQLLIYRVSNRFSGVPDRFSGSGSGTDFTLKISRVEAEDVGVYYCSQSTHVPFTFGQGTKLEIK
notes: FITC-conjugated in the flow cytometry assays, unconjugated in SPR; also called huCO-scFv (collective); humanized scFv version of CO201
programmed cell death (PCD) of Jurkat cells, Annexin V-positive cells after 3 hours [2]: ~60%

EC50 (read off the curve) [1]: ~1 µg/mL
Kd [3]: 0.048 nM
koff [3]: 0.00021 s⁻¹
kon [3]: 4.4e+06 M⁻¹ s⁻¹
B2: CO213-scFv (scFv)
scFv: B1 scFv with E46K
modifications: FITC-conjugated in the flow cytometry assays, sites not stated; unconjugated in SPR.
notes: FITC-conjugated in the flow cytometry assays, unconjugated in SPR; also called huCO-scFv (collective)
programmed cell death (PCD) of Jurkat cells, Annexin V-positive cells after 3 hours [2]: ~60%

EC50 (read off the curve) [4]: ~4 µg/mL
EC50 (read off the curve) [1]: ~2 µg/mL
Kd [3]: 0.033 nM
koff [3]: 0.00017 s⁻¹
kon [3]: 5.1e+06 M⁻¹ s⁻¹
B3: CO209-scFv (scFv)
scFv: B1 scFv with P180S, Q182K
modifications: FITC-conjugated in the flow cytometry assays, sites not stated; unconjugated in SPR.
notes: as for B2
programmed cell death (PCD) of Jurkat cells, Annexin V-positive cells after 3 hours [2]: ~60%

Kd [5]: 0.179 nM and 0.18 nM
koff [5]: 0.0056 s⁻¹
kon [5]: 3.1e+07 M⁻¹ s⁻¹
EC50 [6]: 0.05 ng/mL
B4: CO-1 scFv (scFv)
scFv: QIQLVQSGPELKKPGETVKISCKASGYTFTNFGMHWVKQAPGKGLKWMGWINTYTGEPTYTDDFKGRFAFSLETSASTAYLQINSLKNEDTATFFCTRGDYRYGDSWGQGTTLTVSSGGGGSGGGGSGGGGSDVVMTQTPLSLPVSLGDQASISCRSSQSLVHSNGKTYLHWYLQKPGQSPKLLIYRVSNRFSGVPDRFSGSGSGTDFTLKISRIEAEDLGVYFCSQSTHVPFTFGSGTKLEIK
notes: Murine VH and VL of mCO-1 in single chain format; Detected on cells with anti-His6-FITC, so it carries a His tag; also called CO-1 scFv fragment; scFv fragment of mCO-1

EC50 (read off the curve) [4]: ~0.2 µg/mL
EC50 (read off the curve) [7]: ~0.3 µg/mL
B5: CO-1.4 (antibody, V domains shown)
VH: QIQLVQSGPELKKPGETVKISCKASGYTFTNFGMHWVKQAPGKGLKWMGWINTYTGEPTYTDDFKGRFAFSLETSASTAYLQINSLKNEDTATFFCTRGDYRYGDSWGQGTTLTVSS
VL: DVVMTQTPLSLPVSLGDQASISCRSSQSLVHSNGKTYLHWYLQKPGQSPKLLIYRVSNRFSGVPDRFSGSGSGTDFTLKISRIEAEDLGVYFCSQSTHVPFTFGSGTKLEIK
notes: Divalent comparator antibody against CD47; also called full length IgG4 format of the CO-1 antibody; chimeric IgG4 comparator antibody

Kd [8]: 0.097 nM
koff [8]: 0.0027 s⁻¹
kon [8]: 2.8e+07 M⁻¹ s⁻¹
B6: CO201-scFv-Fc-mono (Fc fusion)
chain 1: QVQLVQSGSELKKPGASVKVSCKASGYTFTNFGMHWVRQAPGQGLEWMGWINTYTGEPTYTDDFKGRFVFSLDTSVSTAYLQISSLKAEDTAVYYCARGDYRYGDSWGQGTTVTVSSGGGGSGGGGSGGGGSDIVMTQTPLSLSVTPGQPASISCRSSQSLVHSNGKTYLHWYLQKPGQPPQLLIYRVSNRFSGVPDRFSGSGSGTDFTLKISRVEAEDVGVYYCSQSTHVPFTFGQGTKLEIKSKYGPPCPSCPAPEFLGGPSVFLFPPKPKDTLMISRTPEVTCVVVDVSQEDPEVQFNWYVDGVEVHNAKTKPREEQFNSTYRVVSVLTVLHQDWLNGKEYKCKVSNKGLPSSIEKTISKAKGQPREPQVYTLPPSQEEMTKNQVSLWCLVKGFYPSDIAVEWESNGQPENNYKTTPPVLDSDGSFFLYSRLTVDKSRWQEGNVFSCSVMHEALHNHYTQKSLSLSLGK
chain 2: SKYGPPCPSCPAPEFLGGPSVFLFPPKPKDTLMISRTPEVTCVVVDVSQEDPEVQFNWYVDGVEVHNAKTKPREEQFNSTYRVVSVLTVLHQDWLNGKEYKCKVSNKGLPSSIEKTISKAKGQPREPQVYTLPPSQEEMTKNQVSLSCAVKGFYPSDIAVEWESNGQPENNYKTTPPVLDSDGSFFLVSRLTVDKSRWQEGNVFSCSVMHEALHNHYTQKSLSLSLGK
notes: Knob-hole heterodimer with a single scFv, 77.3 kDa; FITC-conjugated in the flow cytometry assay on RBCs; also called huCO201-scFv-Fc-mono; huCO-scFv-Fc-mono

— patent publication US20260109764A1 (CAEDO ONCOLOGY, published 2026)
